Experiment [1] has as its target Tenebrio molitor α-amylase (Tenebrio molitor) (UniProt P56634).
Experiment [2] addresses human salivary α-amylase (human) (UniProt P0DUB6).
Experiment [3] concerns the target porcine pancreatic α-amylase (porcine) (UniProt P00690).
Sequence of UniProt P00690 (P00690 16-511): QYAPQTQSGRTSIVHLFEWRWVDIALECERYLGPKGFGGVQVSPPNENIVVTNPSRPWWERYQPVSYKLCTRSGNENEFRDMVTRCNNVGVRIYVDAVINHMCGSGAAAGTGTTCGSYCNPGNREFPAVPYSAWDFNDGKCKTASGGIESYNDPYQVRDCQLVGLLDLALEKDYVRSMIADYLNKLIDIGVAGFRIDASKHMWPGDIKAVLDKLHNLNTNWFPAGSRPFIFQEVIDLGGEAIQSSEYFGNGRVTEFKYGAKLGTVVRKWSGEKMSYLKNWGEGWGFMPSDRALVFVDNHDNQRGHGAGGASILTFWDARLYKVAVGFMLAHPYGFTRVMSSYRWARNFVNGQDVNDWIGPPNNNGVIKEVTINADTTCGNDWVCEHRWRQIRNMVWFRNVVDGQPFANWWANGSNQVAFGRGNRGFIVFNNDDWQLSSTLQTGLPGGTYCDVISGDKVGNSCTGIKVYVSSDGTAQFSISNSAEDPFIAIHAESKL

Sequence of UniProt P56634 (P56634 whole entry): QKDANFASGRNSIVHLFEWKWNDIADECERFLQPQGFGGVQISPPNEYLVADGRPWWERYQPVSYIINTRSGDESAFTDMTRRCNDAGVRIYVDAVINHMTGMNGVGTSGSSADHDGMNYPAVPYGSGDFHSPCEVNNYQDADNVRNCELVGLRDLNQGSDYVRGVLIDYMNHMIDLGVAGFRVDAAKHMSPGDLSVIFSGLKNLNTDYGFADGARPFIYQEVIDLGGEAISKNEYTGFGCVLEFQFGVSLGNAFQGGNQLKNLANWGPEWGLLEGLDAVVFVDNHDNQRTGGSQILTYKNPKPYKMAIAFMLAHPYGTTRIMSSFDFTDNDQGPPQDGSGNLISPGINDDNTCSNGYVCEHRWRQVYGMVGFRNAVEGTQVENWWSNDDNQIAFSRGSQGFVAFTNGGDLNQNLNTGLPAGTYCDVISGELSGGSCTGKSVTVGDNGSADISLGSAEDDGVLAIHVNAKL
Sequence of UniProt P0DUB6 (P0DUB6 16-511): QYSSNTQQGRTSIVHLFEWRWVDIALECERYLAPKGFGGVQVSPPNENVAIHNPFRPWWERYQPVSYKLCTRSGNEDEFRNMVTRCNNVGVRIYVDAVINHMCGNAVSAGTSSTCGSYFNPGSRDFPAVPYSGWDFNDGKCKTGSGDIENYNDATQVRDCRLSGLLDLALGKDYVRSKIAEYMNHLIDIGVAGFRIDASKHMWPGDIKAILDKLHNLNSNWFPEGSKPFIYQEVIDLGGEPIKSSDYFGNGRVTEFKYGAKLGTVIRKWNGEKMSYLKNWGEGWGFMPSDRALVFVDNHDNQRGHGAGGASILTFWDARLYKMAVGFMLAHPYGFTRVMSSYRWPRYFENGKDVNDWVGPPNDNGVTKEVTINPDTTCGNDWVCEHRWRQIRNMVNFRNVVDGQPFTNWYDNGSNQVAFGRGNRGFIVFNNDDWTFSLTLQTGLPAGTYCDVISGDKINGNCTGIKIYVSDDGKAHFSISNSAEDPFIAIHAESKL

Take “subfraction R2 of fraction P10 (lipid transfer protein, Capsicum chinense seeds)”: the inhibition of T. molitor α-amylase activity (starch hydrolysis, DNS reagent; fraction at 50 μg/mL, 37 °C, 30 min; relative to 5 mM EDTA as 100% inhibition) in experiment [1] is 72%. In experiment [2], this substance gave an inhibition of human salivary α-amylase activity (starch hydrolysis, DNS reagent; fraction at 50 μg/mL, 37 °C, 30 min; relative to 5 mM EDTA as 100% inhibition) of 85%. For the same substance, the inhibition of porcine pancreatic α-amylase activity (starch hydrolysis, DNS reagent; fraction at 50 μg/mL, 37 °C, 30 min; relative to 5 mM EDTA as 100% inhibition) in experiment [3] was 81%.
As for “subfraction R1 of fraction P10 (lipid transfer protein, Capsicum chinense seeds)”, the inhibition of T. molitor α-amylase activity (starch hydrolysis, DNS reagent; fraction at 50 μg/mL, 37 °C, 30 min; relative to 5 mM EDTA as 100% inhibition) in experiment [1] stood at 55%. In experiment [2], this substance returned an inhibition of human salivary α-amylase activity (starch hydrolysis, DNS reagent; fraction at 50 μg/mL, 37 °C, 30 min; relative to 5 mM EDTA as 100% inhibition) of 91%. In experiment [3], this substance gave an inhibition of porcine pancreatic α-amylase activity (starch hydrolysis, DNS reagent; fraction at 50 μg/mL, 37 °C, 30 min; relative to 5 mM EDTA as 100% inhibition) of 84%.
For “subfraction R3 of fraction P10 (lipid transfer protein, Capsicum chinense seeds)” the same measures were 93%, 92% and 80%.
For “LTP-rich fraction P10 from Capsicum chinense seeds” the same measures were 98%, 93% and 89%.

The record behind these values is article PMC13280853.
